Experimental data: PMC13156308, “Proximal proteomics analysis reveals DNA polymerase δ subunit 3 is a new MCM2 binding partner and promotes parental histones inheritance in mammalian cells” (Cell Death and Differentiation, 2025)

Biological target: T1, GST-tagged MCM2 (human, UniProt P49736 1-904)
T1 construct: MCM2, amplified from cDNA of human MCF-7 cells, in pGEX-C5X; called MCM2-His in the three-protein pull-down; also called GST-MCM2; MCM2-His; source: E. coli BL21, purified (Ni-NTA); not shown: GST, N-terminal, kept; His tag, C-terminal, kept
T1 sequence (P49736 whole entry): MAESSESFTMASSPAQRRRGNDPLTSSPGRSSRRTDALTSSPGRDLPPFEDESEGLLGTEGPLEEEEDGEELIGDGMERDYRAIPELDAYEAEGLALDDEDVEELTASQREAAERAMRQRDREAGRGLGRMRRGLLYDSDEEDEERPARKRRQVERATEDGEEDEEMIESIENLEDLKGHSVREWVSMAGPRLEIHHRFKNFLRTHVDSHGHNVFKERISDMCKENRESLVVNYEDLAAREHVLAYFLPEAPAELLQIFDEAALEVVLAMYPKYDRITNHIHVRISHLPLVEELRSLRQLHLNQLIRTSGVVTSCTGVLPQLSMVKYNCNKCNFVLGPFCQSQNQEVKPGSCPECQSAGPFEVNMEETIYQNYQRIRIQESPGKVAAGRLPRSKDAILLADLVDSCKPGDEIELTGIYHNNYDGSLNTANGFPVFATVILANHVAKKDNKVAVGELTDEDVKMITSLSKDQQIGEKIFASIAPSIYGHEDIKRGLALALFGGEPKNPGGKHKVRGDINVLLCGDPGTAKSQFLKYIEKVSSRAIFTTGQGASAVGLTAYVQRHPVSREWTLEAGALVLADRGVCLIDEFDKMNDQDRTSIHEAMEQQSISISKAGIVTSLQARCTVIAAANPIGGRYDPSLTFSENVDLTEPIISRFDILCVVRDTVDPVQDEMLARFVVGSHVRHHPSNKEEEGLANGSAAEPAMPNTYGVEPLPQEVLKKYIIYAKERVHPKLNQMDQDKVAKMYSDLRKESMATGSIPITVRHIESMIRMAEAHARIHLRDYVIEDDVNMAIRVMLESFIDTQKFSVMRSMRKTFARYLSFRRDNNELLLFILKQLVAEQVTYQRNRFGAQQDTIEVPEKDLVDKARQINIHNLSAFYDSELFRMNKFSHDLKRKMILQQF
Test: BLI; MCM2 immobilised on Anti-GST biosensors, BLItz, 1x PBS and 0.02% Tween; analyte 0-50.0 nM
Conditions: both partners purified

B1: full-length strep-tagged POLD3 (natural protein, human, UniProt Q15054 1-466, looked up)
chain: MADQLYLENIDEFVTDQNKIVTYKWLSYTLGVHVNQAKQMLYDYVERKRKENSGAQLHVTYLVSGSLIQNGHSCHKVAVVREDKLEAVKSKLAVTASIHVYSIQKAMLKDSGPLFNTDYDILKSNLQNCSKFSAIQCAAAVPRAPAESSSSSKKFEQSHLHMSSETQANNELTTNGHGPPASKQVSQQPKGIMGMFASKAAAKTQETNKETKTEAKEVTNASAAGNKAPGKGNMMSNFFGKAAMNKFKVNLDSEQAVKEEKIVEQPTVSVTEPKLATPAGLKKSSKKAEPVKVLQKEKKRGKRVALSDDETKETENMRKKRRRIKLPESDSSEDEVFPDSPGAYEAESPSPPPPPSPPLEPVPKTEPEPPSVKSSSGENKRKRKRVLKSKTYLDGEGCIVTEKVYESESCTDSEEELNMKTSSVHRPPAMTVKKEPREERKGPKKGTAALGKANRQVSITGFFQRK
notes: full-length human POLD3 gene, synthesised and codon-optimised, in pET28b; also called purified POLD3; Strep II-tagged POLD3; source: E. coli BL21, purified (Ni-NTA); not shown: twin-strep, C-terminal, kept
B1 showed a Kd of 10.2 nM.
